This note sets out measurements from article PMC9002759, “The Sunflower WRINKLED1 Transcription Factor Regulates Fatty Acid Biosynthesis Genes through an AW Box Binding Sequence with a Particular Base Bias”.

The data set addresses HaWRI1_DBD (6-His-TRX-WRI1_DBD) (Helianthus annuus (CAS-6 line), UniProt X2BZR1 51-229). As to the kind of experiment: EMSA; polydIdC; 20 mM Tris-HCl pH 8.0, 250 mM NaCl, 2 mM MgCl2, 1% glycerol, 1 mM DTT, 1 mg/mL BSA, 30 min room temperature, gels at 4 °C; DIG EMSA plus 0.05 µg/µL polydIdC. The following applies: protein: recombinant; tags: N-terminal 6xHis-thioredoxin fusion; label: digoxigenin; blunt.

HaWRI1_DBD (6-His-TRX-WRI1_DBD), sequence (X2BZR1 entry or part of it): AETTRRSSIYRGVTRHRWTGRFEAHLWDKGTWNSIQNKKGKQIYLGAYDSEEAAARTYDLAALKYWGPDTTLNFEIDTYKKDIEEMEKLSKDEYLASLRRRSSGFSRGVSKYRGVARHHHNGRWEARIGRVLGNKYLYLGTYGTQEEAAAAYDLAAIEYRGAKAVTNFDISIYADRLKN

B1: FATA1 AW box 24 bp (dsDNA)
DNA 1: CAGTCCTCGTGCATATCGGAGTCT
DNA 2: AGACTCCGATATGCACGAGGACTG
Regarding B1, the binding result was “binds”.
